Laboratory results as given in publication PMC8024396, “Biochemical and structural characterization of the BioZ enzyme engaged in bacterial biotin synthesis pathway” (Nature Communications, 2021).

B1: Agrobacterium tumefaciens BioZ (enzyme, UniProt A0AA44F6N6 1-328, looked up)
chain: MQTRSSRMAGFGHAVPARCVRNAEIETRLGLEAGWIERRTGIRTRYWAQEGETLSGLAEKAGRMALENARIGAEDIALTLLATSTPDHLLPPSAPLLAHRLGLTQSGAIDLAGACSGFLYALTLADGFVRTHGRAVLVVAANILSRRINPAERATAVLFADAAGAVVLVPCRDAQRGLLSADLVSDGSGYDLIQIAAGGSSQPFSNDTEAEDTLMTMRDGREVFSRAVATMTQTSQRALQRAEMTATDIQRFLPHQANARMFDAVCGNIGIDRQKTVRTVETFGNSSAATIPLSLSVSNAERPITEGETLLLTAAGAGMTGGAVVYRG
notes: BioZ (FabH2), atypical beta-ketoacyl-ACP synthase III of Agrobacterium tumefaciens; bioZ gene cloned into pET28a; apparent mass ~36 kDa; 654 protein residues in the two protomers of PDB 6KUE; also called AtBioZ; FabH2; source: E. coli BL21 with pET28::atbioZ, purified (Ni-NTA, TEV cleavage, Superdex 200 Increase SEC); not shown: His6, N-terminal, cleaved
B2: glutaryl-ACP, P0A6A8 1-78 (natural protein)
chain: MSTIEERVKKIIGEQLGVKQEEVTNNASFVEDLGADSLDTVELVMALEEEFDTEIPDEEAEKITTVQAAIDYINGHQA
modifications: here or on the partner: glutaryl thioester on the phosphopantetheine (Ppan) of Serine 36
B3: malonyl-ACP, P0A6A8 1-78 (natural protein)
chain: B2 chain
modifications: here or on the partner: malonyl thioester on the phosphopantetheine (Ppan) of Serine 36
B4: E. coli holo-ACP, P0A6A8 1-78 (natural protein)
chain: B2 chain
modifications: here or on the partner: phosphopantetheine (Ppan) on Serine 36 (holo-ACP)

Assays:
[1] = target: T1, AtBioZ (FabH2, beta-ketoacyl-ACP synthase III) (Agrobacterium fabrum, UniProt Q7CTU0, C115A); experiment: ITC (MicroCal PEAQ-ITC, […] °C), N = […]; type: binding
T1 construct: gene bioZ; purified BioZ(C115A)

[2] = target: the molecule itself; experiment: SEC; gel filtration of purified AtBioZ on Superdex 200 Increase 10/300; GF buffer (25 mM Tris-HCl pH 8.0, 100 mM NaCl, 2 mM DTT)
[3] = target: BioZ(C115A) mutant enzyme of Agrobacterium tumefaciens (Agrobacterium tumefaciens), A0AA44; experiment: ITC; MicroCal PEAQ-ITC, 25 °C; 50 μM BioZ(C115A) in the cell, 750 μM substrate in the syringe; 20 mM Tris pH 8.0, 150 mM NaCl; one binding-site model; three independent measurements; settings: remark: other sources report otherwise

Row | Molecule | Kd [1] [µM] | stoichiometry N [2] | Kd [3] [µM] | stoichiometry N [3]
1 | CC(C)(COP(=O)(O)OP(=O)(O)OC[C@H]1O[C@@H](n2cnc3c(N)ncnc32)[C@H](O)[C@@H]1OP(=O)(O)O)[C@@H](O)C(=O)NCCC(=O)NCCSC(=O)CCCC(=O)O [glutaryl-CoA] | 2.64 ± 0.23 | – | – | –
2 | B1 | – | 2 | – | –
3 | B2 | – | – | 6.17 | 0.978
4 | B3 | – | – | 24.1 | 0.996
5 | B4 | – | – | 330 | 1
